Where a SMILES comes first, the peptide text is derived from it. [ ]: non-standard residue; d: D form. The star is where a group is joined. Benzoyl(4-F) = O=C(c1ccc(F)cc1)*; pGlu = O=C1CC[C@@H](C(=O)O)N1

Assay [1] addresses T1, bovine type I atelocollagen (Bos taurus, UniProt P02453+P02465, DEL1103-1117).
T1 construct: bovine type I atelocollagen (=pepsin-treated type I collagen; Matrix Bioscience); purchased Matrix Bioscience
Briefly: SPR binding of telopeptide derivatives to immobilized atelocollagen. The following applies: for Kd / kon / koff / ka2 / kd1 / kd2: SPR; for Kd / ka2 / kd1 / kd2: pH 7.4, 25°C; for Kd: calculated from the individual rate constants (Equation 1); for Kd / kon / koff: n = 5; for kon: calculated as koff/KD (Equation 3), read-out: kon (global association rate constant to final complex); for koff: calculated from the individual rate constants (Equation 2), read-out: koff (global dissociation rate constant of final complex); for ka1: SPR Biacore T100, CM5 chip, analyte 45 to 950 μM, HEPES buffer pH 7.4, 25°C; for ka1 / ka2 / kd1 / kd2: two-state reaction model, mean of n = 5. As to the method:
In order to probe binding of the telopeptide derivatives to atelocollagen surface plasmon resonance (SPR) measurements were performed on a T100 Biacore system (GE Healthcare) (Hoppmann et al., [2010]). In brief, bovine type I atelocollagen (=pepsin-treated type I collagen; Matrix Bioscience) was immobilized as ligand on a CM5 (carboxymethylated dextran polymer) sensor chip using EDC/NHS chemistry. About 12,000 arbitrary response (resonance) units (RU) were immobilized. Various concentrations of the analytes (1, 2, and 4a) ranging from 45 to 950 μM were analyzed. The flow buffer used was 10 mM HEPES, 3.0 mM EDTA-Na2, 0.15 M NaCl (pH 7.4) containing 0.05% surfactant P20. Association and dissociation of all analytes was followed in real-time and measured at 25°C at a flow rate of 30 μL/min. After each cycle, the surface was regenerated using 50 mM NaOH. The data were fitted to a two-state reaction model (see scheme below) including reference subtraction and blank buffer correction derived from blank runs using the Biacore Evaluation software 2.0.4.
The parameters KD, koff, and kon were calculated from the individual rate constants by the following equations (Tummino and Copeland, [2008]): […]

The target of assay [2] is bovine type I atelocollagen (pepsin-treated bovine type I collagen) (bovine). Briefly: SPR; Biacore T100; bovine type I atelocollagen immobilised on a CM5 chip by EDC/NHS (about 12,000 RU); peptides as analytes, 45 to 950 μM; 10 mM HEPES, 3.0 mM EDTA-Na2, 0.15 M NaCl, pH 7.4, 0.05% surfactant P20; 25°C; 30 μL/min; two-state reaction model; KD, koff and kon calculated from the individual rate constants. The following applies: both partners purified.

T1 sequence (P02453 178-1191 limits assumed, stated change not applied): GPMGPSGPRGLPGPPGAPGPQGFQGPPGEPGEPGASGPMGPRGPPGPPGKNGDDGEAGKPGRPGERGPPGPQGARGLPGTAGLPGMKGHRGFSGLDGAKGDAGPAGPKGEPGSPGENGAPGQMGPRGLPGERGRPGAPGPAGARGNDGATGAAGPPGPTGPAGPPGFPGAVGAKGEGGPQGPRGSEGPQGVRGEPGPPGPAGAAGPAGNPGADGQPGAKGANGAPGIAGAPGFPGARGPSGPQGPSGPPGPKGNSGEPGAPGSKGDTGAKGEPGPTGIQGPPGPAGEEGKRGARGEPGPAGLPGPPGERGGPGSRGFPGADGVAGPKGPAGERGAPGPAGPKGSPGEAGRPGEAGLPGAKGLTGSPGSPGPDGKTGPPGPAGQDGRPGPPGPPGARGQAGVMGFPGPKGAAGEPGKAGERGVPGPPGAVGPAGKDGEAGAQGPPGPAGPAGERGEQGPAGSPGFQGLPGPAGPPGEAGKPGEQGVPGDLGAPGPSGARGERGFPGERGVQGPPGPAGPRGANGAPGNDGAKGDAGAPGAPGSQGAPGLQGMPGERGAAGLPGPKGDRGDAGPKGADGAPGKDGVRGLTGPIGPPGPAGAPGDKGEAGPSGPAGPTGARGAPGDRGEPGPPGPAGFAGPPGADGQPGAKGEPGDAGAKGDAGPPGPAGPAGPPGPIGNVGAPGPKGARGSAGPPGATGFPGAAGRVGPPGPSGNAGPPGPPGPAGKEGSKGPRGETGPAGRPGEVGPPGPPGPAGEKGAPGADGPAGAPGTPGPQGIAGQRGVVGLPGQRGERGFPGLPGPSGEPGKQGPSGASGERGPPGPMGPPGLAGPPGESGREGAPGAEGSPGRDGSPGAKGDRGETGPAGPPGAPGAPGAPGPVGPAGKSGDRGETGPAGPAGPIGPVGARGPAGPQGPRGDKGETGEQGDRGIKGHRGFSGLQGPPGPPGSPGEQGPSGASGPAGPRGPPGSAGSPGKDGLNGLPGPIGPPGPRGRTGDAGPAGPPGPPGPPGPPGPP
T1 sequence (P02465 89-1102 limits assumed, stated change not applied): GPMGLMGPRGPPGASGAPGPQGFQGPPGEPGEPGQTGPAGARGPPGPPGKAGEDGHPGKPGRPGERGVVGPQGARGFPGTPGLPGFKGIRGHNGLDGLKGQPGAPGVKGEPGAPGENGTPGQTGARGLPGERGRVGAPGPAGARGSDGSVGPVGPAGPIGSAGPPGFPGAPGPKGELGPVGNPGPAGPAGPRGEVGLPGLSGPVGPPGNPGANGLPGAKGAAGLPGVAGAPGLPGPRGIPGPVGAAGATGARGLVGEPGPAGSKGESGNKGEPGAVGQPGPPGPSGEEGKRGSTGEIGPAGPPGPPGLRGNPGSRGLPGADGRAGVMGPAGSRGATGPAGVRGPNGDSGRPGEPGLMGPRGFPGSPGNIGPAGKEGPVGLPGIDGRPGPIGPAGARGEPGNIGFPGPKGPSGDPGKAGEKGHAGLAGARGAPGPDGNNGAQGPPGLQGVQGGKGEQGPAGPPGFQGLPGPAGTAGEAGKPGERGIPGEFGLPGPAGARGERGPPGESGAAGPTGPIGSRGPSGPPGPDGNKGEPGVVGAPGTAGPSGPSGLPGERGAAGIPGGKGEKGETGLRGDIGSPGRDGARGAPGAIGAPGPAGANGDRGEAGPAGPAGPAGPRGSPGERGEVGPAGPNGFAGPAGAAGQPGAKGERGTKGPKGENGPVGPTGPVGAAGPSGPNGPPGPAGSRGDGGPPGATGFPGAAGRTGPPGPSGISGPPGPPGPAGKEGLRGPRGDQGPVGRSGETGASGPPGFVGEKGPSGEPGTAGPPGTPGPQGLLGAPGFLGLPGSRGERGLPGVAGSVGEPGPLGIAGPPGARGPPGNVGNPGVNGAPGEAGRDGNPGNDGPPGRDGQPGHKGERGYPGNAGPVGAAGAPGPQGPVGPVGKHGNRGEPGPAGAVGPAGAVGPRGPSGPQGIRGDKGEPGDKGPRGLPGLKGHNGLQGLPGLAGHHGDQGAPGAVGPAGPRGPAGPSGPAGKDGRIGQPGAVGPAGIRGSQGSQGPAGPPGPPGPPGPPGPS

Turning to `CC[C@H](C)[C@H](NC(=O)CNC(=O)[C@@H](NC(=O)[C@H](CO)NC(=O)[C@H](CCCCN)NC(=O)[C@H](CCC(=O)O)NC(=O)[C@H](CC(=O)O)NC(=O)[C@H](Cc1ccc(O)cc1)NC(=O)CNC(=O)[C@H](Cc1ccc(O)cc1)NC(=O)[C@H](CO)NC(=O)[C@H](CC(C)C)NC(=O)c1ccc(F)cc1)[C@@H](C)O)C(=O)N[C@@H](CO)C(=O)N[C@H](C(=O)N1CCC[C@H]1C(N)=O)C(C)C` [Peptide 2, FBz-LSYGYDEKSTGISVP-NH2] ({Benzoyl(4-F)}-LSYGYDEKSTGISVP-NH2), in assay [1], the Kd was 78.8 µM, the on-rate (kon) was 11.2 M⁻¹ s⁻¹ and the dissociation rate constant (koff) is 0.000879 s⁻¹.

For the molecule `NCCCC[C@H](NC(=O)[C@@H]1CCCN1C(=O)[C@H](CC(=O)O)NC(=O)CNC(=O)CNC(=O)CNC(=O)c1ccc(F)cc1)C(=O)NCC(=O)NCC(=O)NCC(=O)NCC(=O)NCC(N)=O` [Peptide 4a, FBz-GGGDPKGGGGG-NH2] ({Benzoyl(4-F)}-GGGDPKGGGGG-NH2), in assay [1], the ka1 worked out at 188 M⁻¹ s⁻¹, the ka2 worked out at 0.00494 s⁻¹, the kd1 was 0.268 s⁻¹ and the kd2 turned out to be 0.00411 s⁻¹. In addition, in assay [1], the kon was 6.15 M⁻¹ s⁻¹ and the koff is 0.00398 s⁻¹.

In the case of `CC[C@H](C)[C@H](NC(=O)CNC(=O)[C@@H](NC(=O)[C@H](CO)NC(=O)[C@H](CCCCN)NC(=O)[C@H](CCC(=O)O)NC(=O)[C@H](CC(=O)O)NC(=O)[C@H](Cc1ccc(O)cc1)NC(=O)CNC(=O)[C@H](Cc1ccc(O)cc1)NC(=O)[C@H](CO)NC(=O)[C@H](CC(C)C)NC(=O)[C@@H]1CCC(=O)N1)[C@@H](C)O)C(=O)N[C@@H](CO)C(=O)N[C@H](C(=O)N1CCC[C@H]1C(N)=O)C(C)C` [Peptide 1, pGlu-LSYGYDEKSTGISVP-NH2, reference compound] ([pGlu]LSYGYDEKSTGISVP-NH2), in assay [1], the ka1 stood at 123 M⁻¹ s⁻¹, the ka2 was determined as 0.00532 s⁻¹, the kd1 was found to be 0.75 s⁻¹ and the kd2 was found to be 0.00294 s⁻¹. In addition, in assay [1], the Kd was 2170 µM, the association rate constant (kon) was 1.34 M⁻¹ s⁻¹ and the koff is 0.00291 s⁻¹.

B1: 4-fluorobenzoylated α1(I)-N-telopeptide analog (peptide 2), FBz-LSYGYDEKSTGISVP-NH2 (peptide)
peptide: {Benzoyl(4-F)}-LSYGYDEKSTGISVP-NH2
SMILES: CC[C@H](C)[C@H](NC(=O)CNC(=O)[C@@H](NC(=O)[C@H](CO)NC(=O)[C@H](CCCCN)NC(=O)[C@H](CCC(=O)O)NC(=O)[C@H](CC(=O)O)NC(=O)[C@H](Cc1ccc(O)cc1)NC(=O)CNC(=O)[C@H](Cc1ccc(O)cc1)NC(=O)[C@H](CO)NC(=O)[C@H](CC(C)C)NC(=O)c1ccc(F)cc1)[C@@H](C)O)C(=O)N[C@@H](CO)C(=O)N[C@H](C(=O)N1CCC[C@H]1C(N)=O)C(C)C
notes: N-terminal telopeptide of the α1 chain of type I collagen without its N-terminal pyroglutamate, which is replaced by a 4-fluorobenzoyl residue; source: synthetic peptide (microwave-assisted Fmoc solid-phase synthesis, as in Kuchar et al., 2012)
B1: in assay [2], the Kd is 78.8 µM; the “ka1 (two-state model, step 1)” value was 57.4 M⁻¹ s⁻¹; the “ka2 (two-state model, step 2)” value is 0.0141 s⁻¹; the “kd1 (two-state model, step 1)” value is 0.0631 s⁻¹. For the same molecule, in assay [2], the “kd2 (two-state model, step 2)” value was 0.00109 s⁻¹; the koff was 0.000879 s⁻¹; the kon was 11.2 M⁻¹ s⁻¹.

B2: α1(I)-N-telopeptide (peptide 1), pGlu-LSYGYDEKSTGISVP-NH2 (peptide)
peptide: [pGlu]LSYGYDEKSTGISVP-NH2
SMILES: CC[C@H](C)[C@H](NC(=O)CNC(=O)[C@@H](NC(=O)[C@H](CO)NC(=O)[C@H](CCCCN)NC(=O)[C@H](CCC(=O)O)NC(=O)[C@H](CC(=O)O)NC(=O)[C@H](Cc1ccc(O)cc1)NC(=O)CNC(=O)[C@H](Cc1ccc(O)cc1)NC(=O)[C@H](CO)NC(=O)[C@H](CC(C)C)NC(=O)[C@@H]1CCC(=O)N1)[C@@H](C)O)C(=O)N[C@@H](CO)C(=O)N[C@H](C(=O)N1CCC[C@H]1C(N)=O)C(C)C
notes: N-terminal telopeptide of the α1 chain of type I collagen; also called N-terminal telopeptide of the α1 chain of type I collagen; authentic isolated α1(I)-N-telopeptide; source: synthetic peptide (microwave-assisted Fmoc solid-phase synthesis)
Turning to B2, in assay [2], the Kd was 2170 µM; the “ka1 (two-state model, step 1)” value was 123 M⁻¹ s⁻¹; the “ka2 (two-state model, step 2)” value was 0.00532 s⁻¹; the “kd1 (two-state model, step 1)” value was 0.75 s⁻¹. In addition, in assay [2], the “kd2 (two-state model, step 2)” value is 0.00294 s⁻¹; the off-rate constant (koff) was 0.00291 s⁻¹; the on-rate (kon) is 1.34 M⁻¹ s⁻¹.

B3: DPK-containing undecapeptide 4a, FBz-GGGDPKGGGGG-NH2 (peptide)
chain: {Benzoyl(4-F)}-GGGDPKGGGGG-NH2
SMILES: NCCCC[C@H](NC(=O)[C@@H]1CCCN1C(=O)[C@H](CC(=O)O)NC(=O)CNC(=O)CNC(=O)CNC(=O)c1ccc(F)cc1)C(=O)NCC(=O)NCC(=O)NCC(=O)NCC(=O)NCC(N)=O
With B3, in assay [2], the Kd is 647 µM; the “ka1 (two-state model, step 1)” value is 188 M⁻¹ s⁻¹; the “ka2 (two-state model, step 2)” value is 0.00494 s⁻¹; the “kd1 (two-state model, step 1)” value is 0.268 s⁻¹. In addition, in assay [2], the “kd2 (two-state model, step 2)” value was 0.00411 s⁻¹; the off-rate (koff) is 0.00398 s⁻¹; the kon is 6.15 M⁻¹ s⁻¹.

These data come from PMC5932954, “Evaluation of Fluorine-18-Labeled α1(I)-N-Telopeptide Analogs as Substrate-Based Radiotracers for PET Imaging of Melanoma-Associated Lysyl Oxidase” (Frontiers in Chemistry, 2018).
